In patent publication US20240165252A1, “ANTIBODY-DRUG CONJUGATE AND MEDICAL USE THEREOF” (Shanghai Hansoh Biomedical Co., Ltd., priority 2021, published 2024):

T1: BCMA expressed on cells (HEK-293T cells overexpressing BCMA; NCI-H929 tumor cells) (human, UniProt Q02223 1-184)
T1 construct: whole, on cells; also called HEK-293T/BCMA cells; NCI-H929 cells
T1 sequence (looked up): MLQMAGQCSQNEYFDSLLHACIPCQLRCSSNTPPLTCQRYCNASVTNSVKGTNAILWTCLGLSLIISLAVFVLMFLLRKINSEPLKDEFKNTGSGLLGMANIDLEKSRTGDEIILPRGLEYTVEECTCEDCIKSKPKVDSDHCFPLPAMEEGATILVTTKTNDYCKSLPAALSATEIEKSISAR

T2: His-tagged extracellular domain of human BCMA (BCMA-His) (human)
T2 construct: Bought protein; also called BCMA His protein; human BCMA His antigen
T2 chain: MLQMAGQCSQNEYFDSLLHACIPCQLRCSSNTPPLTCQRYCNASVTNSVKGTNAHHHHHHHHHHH


Tests used:
[1] = molecular target: BCMA expressed on cells (HEK-293T cells overexpressing BCMA; NCI-H929 tumor cells) (human) (UniProt Q02223); assay: cell-based or functional assay
[2] = molecular target: T1, BCMA expressed on cells (HEK-293T cells …); assay: flow cytometry on NCI-H929 cells
Method: (§1) The cultured cells with high BCMA expression (HEK-293T cells overexpressing BCMA; tumor cells expressing BCMA, NCI-H929) were collected. The cell density was adjusted and the cells were plated on a 96-well U-bottomed plate at 1×10⁵ to 2×10⁵ cells per well. The plate was centrifuged at 1200 g for 5 min and the supernatant was removed. 100 μl of gradient diluted antibody solution or mouse immunized serum was added and incubated at 4° C. for 60 min. The plate was centrifuged at 1200 g for 5 min and the supernatant was removed. The cells were washed twice with PBS. A fluorescently labeled secondary antibody (PE-GAH or PE-GAM) was added at 100 μl per well and incubated at 4° C. for 60 min. The plate was centrifuged at 1200 g for 5 min and the supernatant was removed. The cells were washed twice with PBS and then re-suspended in PBS. The signal was detected by using a flow cytometer, and a concentration curve was plotted for result analysis.

[3] = molecular target: T1, BCMA expressed on cells (HEK-293T cells …); assay: cell-based or functional assay
[4] = molecular target: T2, His-tagged extracellular domain of …; assay: indirect ELISA, BCMA-His coated on plate
Method: (§2) After washing, the plate 4 times with PBST (pH 7.4 PBS containing 0.05% Tween-20), 3% bovine serum albumin (BSA) blocking solution diluted with PBST was added at 150 μl/well and incubated at room temperature for 1 hour for blocking. After completion of the blocking, the blocking solution was discarded, and the plate was washed 4 times with PBST buffer.
(§3) The antibody to be tested was 10-fold gradient diluted with PBST containing 3% BSA with the initial concentration of 1 μM to obtain 10 dilutions which were added to the microtiter plate at 100 μl/well and incubated at room temperature for 1 hour. After completion of the incubation, the plate was washed 4 times with PBST. HRP-labeled goat-anti-human secondary antibody (Abcam, Cat #ab97225) diluted with PBST containing 3% BSA was added at 100 μl/well and incubated at room temperature for 1 hour. The plate was washed 4 times with PBST, and then TMB chromogenic substrate (Cell Signaling Technology, cat #7004S) was added at 100 μl/well and incubated at room temperature in the dark for 1 minute. The stop solution (Cell Signaling Technology, cat #7002S) was added at 100 μl/well to terminate the reaction. The absorbance value at 450 nm was read with a microplate reader (BioTek, model Synergy H1). The data were analyzed.

[5] = molecular target: T1, BCMA expressed on cells (HEK-293T cells …); assay: cell-based or functional assay; remark: listed apart in the source
[6] = molecular target: T1, BCMA expressed on cells (HEK-293T cells …); assay: flow cytometry on HEK-293T/BCMA cells
Method: as §1

[7] = molecular target: T2, His-tagged extracellular domain of …; assay: indirect ELISA, BCMA His coated on plate
Method: as §2, §3

Molecule | Killing Effect (IC50 nM) NCI-H929 [1] [nM] | EC50 [2] [nM] | Endocytosis efficiency %, 0.5 hour [3] [%] | Endocytosis efficiency %, 2 hours [3] [%] | EC50 [4] [nM] | Killing Effect (IC50 nM) NCI-H929 [5] [nM] | EC50 [6] [nM] | EC50 [7] [nM]
IgG1 iso ADC (y = 4) (antibody) | > 133 | – | – | – | – | – | – | –
humanized anti-BCMA antibody Ab2 (antibody, human IgG1, kappa, V domains shown, Human IgG1/kappa, expressed in HEK293 cells) VH: QVQLVQSGAEVKKPGASVKVSCKASGYSFSDYEMHWVRQAPGQGLEWIGGIHPGSGGSAYNQKFKGRVTLTVDKSTSTAYMELSSLRSEDTAVYYCTRLDYGYSWAWFPYWGQGTLVTVSA VL: EIVLTQSPATLSLSPGERATLSCSASSSVIYMNWYQQKPGQSPKIWIYGISNLASGVPARFSGSGSGTDFTLTISSLEPEDFAVYYCQQRSSYPLTFGGGTKVEIKR | – | 3.5 | 36.7 | 48 | 0.033 | – | – | –
antibody drug conjugate ADC2 (y = 4) (antibody, human IgG1, kappa, V domains shown, Linker-drug compound D (exatecan derivative) coupled to Ab2 after TCEP reduction. Average load y = 4 per antibody. Sites not stated.) VH: QVQLVQSGAEVKKPGASVKVSCKASGYSFSDYEMHWVRQAPGQGLEWIGGIHPGSGGSAYNQKFKGRVTLTVDKSTSTAYMELSSLRSEDTAVYYCTRLDYGYSWAWFPYWGQGTLVTVSA VL: EIVLTQSPATLSLSPGERATLSCSASSSVIYMNWYQQKPGQSPKIWIYGISNLASGVPARFSGSGSGTDFTLTISSLEPEDFAVYYCQQRSSYPLTFGGGTKVEIKR | – | – | – | – | – | 0.76 | – | –
humanized anti-BCMA antibody Ab1 (antibody, human IgG1, kappa, V domains shown, Human IgG1/kappa, expressed in HEK293 cells) VH: QVQLVQSGAEVKKPGASVKVSCKASGYSFSDYEMHWVRQAPGQGLEWMGGIHPGSGGSAYNQKFKGRVTMTRDTSTSTVYMELSSLRSEDTAVYYCTRLDYGYSWAWFPYWGQGTLVTVSA VL: EIVLTQSPATLSLSPGERATLSCSASSSVIYMNWYQQKPGQAPRLLIYGISNLASGIPARFSGSGSGTDFTLTISSLEPEDFAVYYCQQRSSYPLTFGGGTKVEIKR | – | 4.6 | 36.6 | 49.5 | 0.022 | – | – | –
humanized anti-BCMA antibody Ab3 (antibody, human IgG1, kappa, V domains shown, Human IgG1/kappa, expressed in HEK293 cells) VH: QVQLVQSGAEVKKPGASVKVSCKASGYSFSDYEMHWVRQAPGQGLEWIGGIHPGSGGSAYNQKFKGKATLTVDKSTSTAYMELSSLRSEDTAVYYCTRLDYGYSWAWFPYWGQGTLVTVSA VL: EILLTQSPATLSLSPGERATLTCSASSSVIYMNWYQQKPGSSPKIWIYGISNLASGVPARFSGSGSGTSFTLTISSLEPEDFAVYYCQQRSSYPLTFGGGTKVEIKR | – | 3.9 | 35.5 | 45.7 | 0.034 | – | – | –
murine monoclonal antibody M1 (antibody, V domains shown, It is a hybridoma-derived murine antibody, yet the ELISA protocol names a goat-anti-human secondary antibody; also called murine antibody M1) VH: QVQLQQSGAELVRPGASVKLSCKALGYSFSDYEMHWVRQTPVHGLEWIGGIHPGSGGSAYNQKFKGKATLTVDKSSSTAYMELSSLTSEDSAVYYCTRLDYGYSWAWFPYWGQGTLVTVSA VL: EILLTQSPAIIVTSPGEKVTITCSASSSVIYMNWYQQKPGSSPKIWIYGISNLASGVPARFSGSGSGTSFSFTINSMEAEDVATYYCQQRSSYPLTFGAGTKLELK | – | 128 | – | – | – | – | 115 | 0.53
